Measurements taken from the DeepSol protein solubility set.

assay: soluble on expression in E. coli; label from the status in PepcDB or PDB records

Sequence	soluble on expression in E. coli
MIVFKAENLSVGYNGVKAVSNINFSAKQGEIICLLGPNGAGKTTIIRTLSGLLPPIEGEIHINGKSLSTINKKLLAQTLSVVLTEKPSFDVMTAFDVVSLGRFPHTGFFGTITKEHEIKVVEALKTVGALNLIDKYFHILSDGERQKVMLARALVQEPQIIILDEPTTHLDINHKIELLNTLKNLSRTAKLTVILSLHEIDLALKYCDKVMLVENKKVLSFGSPETTVNGETINKLYGIKNASFNPITSSIELKNSEKSNIYVIGGCGFGTPIYRLLSKYNLGFSTGILHENDIDYETAKTMSLRLQSEKPFQKISKISFEKALAAVASSDIIIDSGFPIGETNEKNLNLLNYAVEKNKRVITFRKYFNSTMSYCSNKDALIDFILRLEHHHHHH	not soluble
MDREHLIKLACARNPDLEMCEQLKARNVRDSNSGKLEMIEPPPLPPSMKAAKRRDIHAAHDENSEQKPVRYRALSAEEVRILQTKCARVGPLVQKHCQPKKTSARNAGRCAAYFRDCAQFIEKGDPLGAIANSFDSGVNINLANVDVKGIPYYPLNEEGAVGVGVGLGIPFGAWGGGASTSVGVRDYFHGDQEVGANWYDGKYGYKNHWNIPLVQSLGVEGGQHNTVSFPLHGKDAGNLKVDNGYGVGGYYQQNDHVGVNYKEGDVRHTFGVSSPFVGAGFQTGQAVAFPGLDVWERALG	not soluble
STNVFIMGHVNPDIDCIGGAIGLYSVLSSKVDGDVHIVLDDTSSSVEGIVNRLVENYDEYKNVFMRSSDCIELIDQGSILILDDVNSRNYVLSEKILEEISKVVVIDHHRRAANYIKDTILSYIESYASSTSELVTEMIQYMDENHKLKPIEAEALLAGIVVDTKNFSFKTGVRTFEAAAFLRKNGADTIEIKKLFSNDL	not soluble
MSLAFHEGLAAHLATGVTTTCHAWAIDRADGVVMGFTDHDRGLVFEGIDFRADSGLSALALQRGTGLAVDNSEAIGALTDAAIREADIDAGRFDGAGVRAWLVNWTDVAQRQLMFRGTIGEIRRAGGAFTAELRGLTEALNQPRGRVYQTPCGAVLGDAACGVDLGAPGYAAEAEVLGVEEGQRLVLPGLPDFEAGWFARGRLVVLDGAAEGLSGVVKRDVIAEGARHVDLWQALRAPLSVGDRIRIEAGCDKRMETCRYKFNNLLNYQGFPDIPGEDWMTVMPAQSGATGGGSRREGHHHHHH	soluble
MLLTLNALPFVLVNCGGKKKPAPPPKAAAKPMAAPAGGAGGAGGAGGAGKSDSFDSKKQDIPSSKKEEPVAPKKEDEGNYEELAIPQ	not soluble
PKEQSMKIVVIGGTGLIGSNVVNRLRRDGHETVAASPGTGVNTITGEGLAQALDGAQVVVDVANSPSFEDQAVMAFFETSGRTLLAAEAAAGVTHHLALSVVGTDRLADSGYFRAKVAQEALIKASKVPYTILRATQFFE	not soluble
MGSDKIHHHHHHMQTGKAISIPSILKVGNGTLNKIGEYLKSEELTSVVIFMGNGLIDMFGDTIMKSLTDAGITVLEYSELDTVEIDDIITLAFDIPNKVKAVVSVGGGKVIDAGKYAAFLRNMPFISVPTSSSSDGFSSASASLLVHGKRTSVPAKLAHGIIVDTQVIRTAPEKFIYSGIGDMVSKITALYDWIFEEAHGAGVVNDFAVMVAKKAVNSFVRTPYESIKDELFLKELVDSLAMSGIANEIAGSSAPTSGSEHLISHALDKILEHPQLHGIQVGIATYIMSVVQNHRYVRVCTVLKRTGFFDYAATLGMRKQDFLDAIDMAPSMKPFRHTYLHEKEYRDAAKKLVLEDDILNKILV	not soluble
MCMDLESLLAIKHFRADQAQLALKRQQQAAVAAAAQRQAQGRLDDCRLWAGQLENRLYAELCRRIVKTRDIDEVLQRVGHARDRQASLALQLDDAVRRHEHEIQLLAQQREQHRECFQAQQRIAELVRLQQVEAAALRESLEDREIQEAIELSARGRDDASRAGDGLARLLEHHHHHH	not soluble
MGLISAAVGAVGGGLADQWLEVIEAGDMGEGIVLAKGVAVRTDKRNTNKKGSSDVVSNGSIIHVNQNQFMMLVDGGKIVDYTAEPGYFKVENSASPSLFGGQFGDALKETFSRFKFGGTTPMKQEVFYVNLQEIKGIKFGTPNPLQYFDNFYNAELFLRTFGNYSIKITDPIKFFKEACPRDAENVHIDEINEQYLSEFLEALQAAISQMSMEGERISFIPSKGTVLSKHMSEILDDSWKELRGMEVLSVGIASISYDDESKELINMRNKGAMLGDPGVREGYVQGSIARGMEAAGSNQAGAGMAFMGMGMGMNAAGGFMGQASQTNMQQMQMNQAAQRAAQGAGQQQGAGAKAAGEWFCTECGHKNTGKFCAECGTPKPQGLEHHHHHH	soluble
MSENSNQFLDALKQMQGVEVGDIVDVEVLDVEDGQIDVGVENAGVEGVITRREYTSDRNADLRDLVKPGDKFKALVLRRAGGDKENGEFFFSVTRLKEREAFDKLQKDFEEGNAIEGTVTSSVRGGLLVDVGTRGFLPASLISNRYVSDLKPYIGKTMKLKITEIDPNKNRLILSHKDLVEEEREEAFDKVASQLVVGDVVEGKVSRLTNFGSFIDVGGVDGLVHISEISYKHVDKPSDVLKVGQDVKVKVIGIDNDRHRISLSIKQTEPSPFEQATADLNEGDIFEGEVKSLTNFGAFVEVADGIQGLVHVSEISNKHVDKPSDVLKVGQTVKVKVLNIDPNDRRISLSIKAADSNSSSSDNHNSRPRRSRNENTVNKKYMSDNDNGFALGDIIGDQLKDRKLEHHHHHH	soluble
TPTTFVHLFEWNWQDVAQECEQYLGPKGYAAVQVSPPNEHITGSQWWTRYQPVSYELQSRGGNRAQFIDMVNRCSAAGVDIYVDTLINHMAAGSGTGTAGNSFGNKSFPIYSPQDFHESCTINNSDYGNDRYRVQNCELVGLADLDTASNYVQNTIAAYINDLQAIGVKGFRFDASKHVAASDIQSLMAKVNGSPVVFQEVIDQGGEAVGASEYLSTGLVTEFKYSTELGNTFRNGSLAWLSNFGEGWGFMPSSSAVVFVDNHDNQRGHGGAGNVITFEDGRLYDLANVFMLAYPYGYPRVMSSYDFHGDTDAGGPNVPVHNNGNLECFASNWKCEHRWSYIAGGVDFRNNTADNWAVTNWWDNTNNQISFGRGSSGHMAINKEDSTLTATVQTDMASGQYCNVLKGELSADAKSCSGEVITVNSDGTINLNIGAWDAMAIHKNAKLNTSSAS	soluble
MPILQPKLMKQLMKFAIFGNTYQPKKSLHALRLFELLKKQGAEICMCREFYQFLTADLKMEVPVDALLEGNDFTADMVISIGGDGTFLKAARRVGRKQIPILGINTGRLGFLADVSPEEMEVTFEEIQAGRYSVEERSVLQLICNDRNLQESPYALNEIAVLKRDSSSMISIRTAINGAYLNTYQADGLVIATPTGSTAYSLSVGGPIIVPHSNTIAITPVAPHSLNVRPIVIRDDWEITLDVESRSHNFLVAIDGSSETCKETTQLTIRRADYSIKVVKRFNHIFFDTLRSKMMWGADGRRLEHHHHHH	soluble
MSLTTSFQDTEFFENQIFNTGKYNCLILRTAMNVLREHANLDIVYGGRAIRQLIYETVDTISAMEGVDKKATWLKLISLCDQFRKTGQESLSLAEYTEDFNFESIALQVDAFSLFAKPHDFQVFSVFLEDSEKGKLATILSSLTQKFSNKSRFKICQALLERGQISSSSATELYDEFIQSKVDDTEAIDFQNRLAEVSLKTIREMIFSKTREEDTEMRTASDSSVSPFLRLNAISSLRDIKDAHEKILIDMAIIFLLFDPREETVELLNAIVKRLSSYAMLEHIFCTCFNDQGTELESHSLSKPENSVFWISVADKFPALKQLINGGDMAGAFDYLVEKLDKSYDEVILNVVIELLNRGNGEVVRKNYIKSLNPNRLIDRILIGLVYLLTDDVDNFRATFEDFAETLLLQNEQNKTDAPLEDRLNYKKEVSDLLNAVFASSSNPAAQKSNYYHTLFALAKSQAKVLRHRSHENIISPNSTSSAEAKFIKAALLFEQKAISYLKQVVKSEHLKFNLDDAYLNVYELGLYLQDYKSVYESLQNLSPVADEYDYNYLMKRYLSRLISQGSISTIFPPNDNKLYRDNYLLIDSVLLDLANNELVLASALTFYEYLYSWRLLGSATKVDPTELTDKRGAAEALYMFITRFKLEQPDLLSSTSEQSEDIKQYKLKVLELYLMILNCLQSFESIEDQWLVKSQTNDSLAVVKLNEITLEYYNWLKEIKDEEGHHHHHH	not soluble
MDLGIKGKKVIVTAASKGIGLAIAKRFLEEGAKVIISSNDESNLMKAYNKLKEIHSENVSYIKADLMNPHEVKSLVHEGYRKLGGLDVLAYVTGSPKPGNLFSLSDKDWMDAFNLLLLSAVVAVREAGQLMQSGGRIILSTSTTLRQPIDNLDLSNVVRLSLAGLIKVASRELGPKGILVNGVMPGWTKTERLLQIIRDRAIREGKSEDEVLKSIVADVPLGRAGEPEEIANVVLFLASNLSTYVTGALIPVDGGSIKGVF	not soluble
MSLKDVSLSSFDAHDLDLDKFPEVVRDRLTQFLDAQELTIADIGAPVTDAVAHLRSFVLNGGKRIRPLYAWAGFLAAQGHKNSSEKLESVLDAAASLEFIQACALIHDDIIDSSDTRRGAPTVHRAVEADHRANNFEGDPEHFGVSVSILAGDMALVWAEDMLQDSGLSAEALARTRDAWRGMRTEVIGGQLLDIYLESHANESVELADSVNRFKTAAYTIARPLHLGASIAGGSPQLIDALLHYGHDIGIAFQLRDDLLGVFGDPAITGKPAGDDIREGKRTVLLALALQRADKQSPEAATAIRAGVGKVTSPEDIAVITEHIRATGAEEEVEQRISQLTESGLAHLDDVDIPDEVRAQLRALAIRSTERREGHHHHHH	soluble
GPGSMSQEGGKSEPDANEKEQRNQKLRLGLEAMFCAQEIPSEKRTDIESDGEEVPPSITRDEDRYRQVAEAILRIDTKSKIIEINNIRLFSVAEIELDKLTECTSLSLRKNLLHDLIPFPEDLADRLDELDLFDNKIRKLNDFFETVTVPGDPPTTKTLPNAYKCLTKLDLSYNQIREIGGLDSIGGTLRELYLVENKIKEVKNLDSLVNLELLELGGNRLRAIGSGLEKLTKLKQLWLGKNKISSIGTALHKLVSLEILSLQANRITSVDAENFLGAKANPNLREVYLSENGLTSVGNVRHLSTIKIIDFSFNSICSIDAEEINPQTMPKLEEFWLTDGNIADWEEVGKLSGFTSTLKTVYLERNPIEEDKRYRDKVYMYLPFLVQIDSWPIVNKGNLEADRKRKA	not soluble
MAQGTVEARHGALDEAALGIGRWRWDLRSQELVWSEEERAIFGLAPGAPVPGFAAFSAMIHPDDRARVVAAVSETLAQRRLRHSIGFRILRPDGTMRQILSHGRLVMGLDGKPISLEGVDLDLT	not soluble
MTKLNAFLDTLGEGIRQKFWDIVAAAKTDAQTNLPSDKAKELAGEVISDFEQGNLFKSHQEISAELKSKFESLDDADKAAVKNLAKVYGKQAKALVMPHLPEDCKAKTDATDDAGKAAVAGGFDTGDYLPRKKRELLFIDNLTAAFREMRSRRGF	not soluble
MNKSNNEPFNQVLDKHLSRRNFVKSGLGLGAMTAFAGMGLTGCGSDSSSSPIPVDPVPPLPPTKSSAKLNFTSVKGARLNAVVVPEGYSAQVLAPWGTPLNAKAAPWKADGSNTADDQANSVGMHHDGMHFFPLNQAGDDGLLCINHEYIDEIALHPNGPTVDATTGLRTIVDEVRKEINAHGVSVVRIKLTNNQWEVVYNDKHNRRFTGATVMDIAGPLAYSPLLETRYSPDGSQARGTLNNCGNGYTPWGTYLTCEENWPEYFVNRSTLTRDQIRIGISKTSSRYGWDDLAGQDEERLDEFSRFDVTPKGVSARDDYRNEANGHGYIVEIDPYNPTSRAIKRTALGRFRHEGCTFGKLSEGQPVVFYSGHDARFEYLYKFVSAAPWNPQDANSSNRLEIGDKYMNEGTLYAAKFNENGVGAWLPLTLDSQTTDGKTLGNSFASLADIILNTAGAADLLGATPMDRPEWCAVDPFTGSVYLTLTNNSKRTEANPANPRLKNNFGHIIRWDEADKETEFTWDIFVFGSPSDGNAETNLSGLTDLNQFASPDGLAFDKRGILWVQTDNGAEEVAEETNDQMLAIVPSTLLDSANKQTSVTAKNQMELKRFFVGPNDCEVTGFAISPDYKTVFANIQHPGNWPYSNNAAEVTPTGVVLRPRAATVVIRKLDGKEVAVLEHHHHHH	soluble
